Test results as given in patent publication US12599645B2, “Antibodies which bind to lysophosphatidic acid receptor 1 (LPAR1)” (DJS ANTIBODIES LTD, priority 2021, dated 2026).

B1: Antibody 1: Hybridoma-derived antibody against LPAR1; VH SEQ ID NO: 23, VL SEQ ID NO: 24 (antibody, V domains shown)
VH: QVQLQQSGAELARPGASVKLSCKASGYTFTSSGISWVKQRTGQGLEWIGEILPRSGYTNYNEKFKGKASLTADKSSSTAYMELRSLTSEDSAVYFCARDFGSSRYAMDYWSQGTSVTVSS
VL: SIVMTQTPKLLPVSAGDRVTMTCKASQSVRYNVAWYQQKPGQSPKLLIYYASNRYTGVPDRFTGSGSGTDFTFTVRSVQVEDLAVYFCQQHYNSPLTFGSGTKLELR
B2: 63D8: Further hybridoma antibody specific to LPAR1; VH SEQ ID NO: 113, VL SEQ ID NO: 114 (antibody, V domains shown)
VH: EVKLLESGGGLVQPGGSLKLSCTASGFDFSRYWMSWVRQAPGKGLEWIGEINPSRSAINYSPSLKDKFIISRDNAKNTLYLQMSKVRSEDTALYYCARQGQRLRYGMDYWGQGTSVTVSS
VL: DIVMTQSPNFMSTSVGDRVSVTCRASQDVRTAVAWYQQKPGRSPKLLIYWTSTRHTGVPDRFTGSGSGTDYTLTISSVQAADLALYYCQQHYGTPLTFGAGTNLELK
B3: Antibody 17: Optimised antibody; VH SEQ ID NO: 102, VL SEQ ID NO: 99 (antibody, V domains shown)
VH: QVQLVQSGSELKKPGASVKVSCKASGYTFTSSGISWVRQAPGQGLEWMGEIQPRSGYTNYNQGFTGRFVFSADKSVSTAYLQISSLKAEDTAVYYCARDKGPARYTMDYWGQGTTVTVSS
VL: SIQMTQSPSSLSASVGDRVTITCQASQSVRYNVAWYQQKPGKAPKLLIYYASNRYEGVPSRFSGSGSGTDFTFTISSLQPEDIATYFCQHHYSSPLTFGGGTKLEIK

Legend:
CHO-LPAR1 cells = target: T1, CHO-LPAR1 cells (Homo sapiens, UniProt Q92633); experiment: Competition CIFAT; assay type: binding; conditions: data not shown
T1 construct: expressed in transfected cells
T1 sequence (Q92633 whole entry): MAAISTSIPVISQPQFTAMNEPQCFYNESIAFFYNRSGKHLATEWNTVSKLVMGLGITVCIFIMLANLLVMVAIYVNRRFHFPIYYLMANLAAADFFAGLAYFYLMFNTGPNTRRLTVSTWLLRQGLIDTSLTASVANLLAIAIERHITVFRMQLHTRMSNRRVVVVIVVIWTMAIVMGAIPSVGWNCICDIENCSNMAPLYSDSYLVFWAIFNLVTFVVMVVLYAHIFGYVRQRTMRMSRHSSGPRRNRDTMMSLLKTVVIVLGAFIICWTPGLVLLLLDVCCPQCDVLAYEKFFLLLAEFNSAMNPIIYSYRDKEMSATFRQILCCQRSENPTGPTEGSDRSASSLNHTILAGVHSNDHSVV
Experimental: CHO-LPAR1 (GenScript) cells were seeded in black 96-well plates at 50,000 cells/200 μL full growth medium at and incubated for 24 hours at 37° C. The following day, the medium was removed from the wells and the cells incubated with 100 μg/mL primary antibody for 20 minutes at 37° C. After pre-incubation with the antibody, 10 μg/mL biotinylated competing antibody was added before incubation for 20 minutes at 37° C. After washing and cell fixation with 4% PFA, the binding of the antibodies was detected using an Alexa Fluor 488 streptavidin detection antibody (Molecular Probes), incubated for 45 minutes at 4° C. Fluorescence at 488 nm was measured using a BMG LABTECH ClarioStar plate reader and microscopy images were taken at 10× magnification.

LPAR1 [1] = target: T2, LPAR1 (Homo sapiens, UniProt Q92633); experiment: Transient-transfection CIFAT, fixed/permeabilised cells; assay type: binding; set-up: HA; expressed in transfected cells; host or cells: CHO-K1 (transient, PEI); conditions: 5 μg/mL
T2 sequence (Q92633 whole entry): as above

LPAR1 [2] = target: T2, LPAR1; experiment: Transient-transfection CIFAT, live cells; assay type: binding; set-up: HA; expressed in transfected cells; host or cells: CHO-K1 (transient, PEI); conditions: 5 μg/mL or 20 μg/mL
Experimental: CHO-K1 cells are seeded in multi well plates at 20,000 cells per 200 μL full growth medium and incubated for 24 hours at 37° C. In a sterile tube, 0.0309 uL/well PEI is diluted into 10 uL/well transfection medium (DMEM supplemented with 2 mM L-glutamine and Penicillin-Streptomycin). The diluted PEI is added to 100 ng/well DNA, before mixing immediately and incubating the mixture for 10 minutes at room temperature. 200 μL/well full growth medium is added to the PEI-DNA mixture, then medium in wells is taken off and 200 ul full growth medium/PEI/DNA mixture is added in the wells of the adherent cell plate. The plate is incubated for 24 hours at 37° C. The medium is discarded and replaced with 200 μL full growth medium. The plate is incubated for 24 hours at 37° C. Medium is removed from the wells and the cells incubated with primary antibody at varying concentrations for 75 minutes at 37° C. After washing and cell fixation with 4% PFA, the binding of the antibodies is detected using a goat anti-human detection antibody, incubated for 1 hour at room temperature. Fluorescence at 488 nm is measured.
CHO-K1 cells were seeded in clear 96-well plates at 20,000 cells per 200 μL full growth medium and incubated for 24 hours at 37° C. The following day, in a sterile tube, 0.0309 uL/well PEI (Generon, MW 160,000) was diluted into 10 uL/well transfection medium (DMEM supplemented with 2 mM L-glutamine and Penicillin-Streptomycin). The diluted PEI was added to 100 ng/well DNA encoding the target protein (human LPAR1 (SEQ ID NO: 62) unless otherwise stated), before vortexing immediately and incubating the mixture for 10 minutes at room temperature. 200 μL/well full growth medium was added to the PEI-DNA mixture, then medium in wells was taken off and 200 ul full growth medium/PEI/DNA mixture was added in the wells of the adherent cell plate. The plate was incubated for 24 hours at 37° C. The next day, the medium was discarded and replaced with 200 μL full growth medium. The plate was incubated for 24 hours at 37° C. The following day, medium was removed from the wells and the cells incubated with primary antibody at varying concentrations for 75 minutes at 37° C. After washing and cell fixation with 4% PFA, the binding of the antibodies was detected using a goat anti-human Alexa Fluor 488 detection antibody (Invitrogen), incubated for 1 hour at room temperature. Fluorescence at 488 nm was measured using a BMG LABTECH ClarioStar plate reader and microscopy images were taken at 10× magnification.
(§1) Anti-LPAR1 antibodies of the invention were tested alongside commercially available anti-LPAR1 antibodies in the transient-transfection CIFAT assay for live cells (method 1.11) and in the transient-transfection CIFAT assay for fixed cells (method 1.11).

Irrelevant GPCR = experiment: Transient-transfection CIFAT, irrelevant GPCR control (fixed and live cells); assay type: binding; conditions: cells expressing irrelevant GPCR
Experimental: as §1
The results are shown in FIGS. 11 and 12, wherein the scale bar represents 100 μm.

[3] = Dose range-finding toxicity study, liver histopathology; assay type: in vivo; conditions: cynomolgus
Experimental: A dose range-finding study was carried out to determine the potential toxicity of Antibody 17 when given by the intravenous (infusion) route to cynomolgus monkeys. The test item, Antibody 17, was administered to 8 animals via intravenous infusion (30 minutes) on Day 1 (Group 1) or on Days 1, 8 and 15 (Groups 2 to 4). Animals were split by sex, allocated into 4 groups and dosed with Antibody 17 at 10, 33 or 100 mg/kg/day.
A complete gross pathological examination, organ weight recording and microscopic evaluation were performed on the six animals that were given 3 doses of Antibody 17 (Groups 2 to 4) two days after the third dose.

[4] = set-up: species or system Sprague Dawley rats; conditions: rat, in vivo, iv, 3 mg/kg
Experimental: The rat pharmacokinetics study was carried out in male Sprague Dawley rats (275-325 g). Rats received an IV slow bolus (3 mg/kg) of test antibody. Blood samples were taken at the following time-points: pre-dose, 2 min, 1 hour, 3 hours, 6 hours, 24 hours, 48 hours, 96 hours, 7 days, 14 days and 21 days after dosing. For each animal and for each blood sampling, 200 μL venous blood was obtained from the sublingual vein under isoflurane anaesthesia in K2EDTA vials. The blood samples were gently mixed, placed immediately on crushed ice and centrifuged within 30 min of sampling at approximately 1500×g for approximately 10 min at approximately 4° C. For each blood sample, the resulting plasma was separated into 2 aliquots of 30 μL and transferred, using disposable plastic material, into polypropylene tubes with conical bottom and stored at −80° C. until analysis by capture ELISA. Plates were coated overnight with 1 μg/mL capture IgG before washing and blocking with 3% (w/v) milk the next morning for 2 hours. […] Absorbance was measured on a plate reader at 450 nm. Antibody concentrations were calculated using interpolation off a standard curve constructed for each individual test IgG in Prism 5 (GraphPad Software, CA, USA). Interpolated data was analysed using Phoenix WinNonlin® version 8.1 (Certara USA, Inc., Princeton, NJ) to extract relevant PK parameters. […]

[5] = system: renal fibrosis after UUO surgery; experiment: Unilateral ureteral obstruction (UUO) efficacy model of renal fibrosis; assay type: in vivo, Hartley guinea pigs; conditions: Study 2
Experimental: Unilateral ureteral obstruction (UUO) is a well-characterized disease model for renal fibrosis. The UUO model encompasses key pathophysiological features of chronic kidney disease; tubular necrosis and inflammatory cell infiltration within a relatively short period.
Two unilateral ureteral obstruction (UUO) model efficacy studies were carried out in six-week old female Hartley guinea pigs. On Day 0, UUO surgery was performed. BMS-986020 was administered orally at a dose level of 30 mg/kg in a volume of 5 mL/kg twice daily at from Day −1 to 9. Isotype control and anti-LPAR1 antibody was intraperitoneally administered at a dose level of 6 mg/kg (low) or 20 mg/kg (high) in a volume of 10 mL/kg at Day −1, Day 0, Day 3 and Day 6. The viability, clinical signs, behaviour and individual body weight was monitored daily.
The animals were sacrificed at Day 10. The ligated left kidney and right kidney weight were measured at sacrifice.
Hydroxyproline is an amino acid, making up around 14% of collagen and acts as an important indicator of the severity of fibrosis. To quantify kidney hydroxyproline content, frozen posterior right section of left kidney samples were processed by an alkaline-acid hydrolysis method. AC buffer (2.2M acetic acid/0.48M citric acid) was added to the samples, followed by centrifugation to collect the supernatant. A standard curve of hydroxyproline was constructed with serial dilutions of trans-4-hydroxy-L-proline (Sigma-Aldrich, USA) starting at 16 μg/mL. The prepared samples and standards were mixed with chloramine T solution (Nacalai Tesque Inc., Japan) and incubated for 25 minutes at room temperature. The samples were then mixed with Ehrlich's solution and heated at 65° C. for 20 minutes to develop the colour. After samples were cooled on ice and centrifuged to remove precipitates, the optical density of each supernatant was measured at 560 nm. The concentrations of hydroxyproline were calculated from the hydroxyproline standard curve. Protein concentrations of kidney samples were determined using a BCA protein assay kit (Thermo Fisher Scientific, USA) and used to normalize the calculated hydroxyproline values. Kidney hydroxyproline contents were expressed as μg per mg protein.
The left kidney was fixed in Bouin's solution and embedded in paraffin. For PAS staining, sections were cut from paraffin blocks and stained with Schiff's reagent (FUJIFILM Wako pure chemical corporation, Japan) according to the manufacturer's instructions. To visualize collagen deposition, kidney sections were stained using picro-Sirius red solution (FUJIFILM Wako pure chemical corporation). For quantification of interstitial and medulla fibrosis area, bright field images in the corticomedullary region were captured using a digital camera (DFC295) at 200-fold magnification, and the positive areas in 5 fields/section were measured using ImageJ software (National Institute of Health, USA).

[6] = IV infusion, 10, 33 or 100 mg/kg/day

Molecule | competition for the same epitope (CHO-LPAR1 cells) | LPAR1 fixed cell staining (LPAR1 [1]) | LPAR1 live cell staining (LPAR1 [2]) | Irrelevant GPCR cell staining (Irrelevant GPCR) | histopathology findings ([3]; 3 doses (Days 1, 8 and 15), two days after the third dose) | adverse effects throughout the study [3, 6] | tolerability at the injection sites [3, 6] | unscheduled deaths [3, 6] | mean Cmax [4] | histological picrosirius staining [5] | kidney hydroxyproline ([5]; BMS-986020 30 mg/kg oral vs vehicle, antibody 20 mg/kg (high) i.p. vs isotype antibody)
B1 | compete for the same epitope |  |  |  |  |  |  |  |  |  | 
B2 | compete for the same epitope | LPAR1-Significant fixed and live cell staining | LPAR1-Significant fixed and live cell staining | Irrelevant GPCR-No significant cell staining |  |  |  |  |  |  | 
B3 |  |  |  |  | no adverse findings | No adverse effects | well tolerated | no unscheduled deaths | 143.8 µg/mL | No observable difference | significant reduction in hydroxyproline
